Experimental data: article PMC3597794
Where “and” joins values, the source holds several entries; their conditions need not be identical. Equal entries are not always repeated.

Target: HsiB1C1 complex (P. aeruginosa PAO1)
Test: negative stain electron microscopy

HsiB1C1 complex
stoichiometry N: 12 and 13
